The target of this assay is HER2 on cancer cell lines (BT-474, SK-BR-3, MDA-MB-361-luc) (human) (UniProt P04626). Put plainly: cell-based or functional assay.

The source of these data is patent US20250295809A1.

Regarding ZW-25 bispecific antibody, the Emax, BT-474 cell proliferation (CellTiter-Glo 2.0, 4 days) came to 41.5%; the IC50, BT-474 cell proliferation (CellTiter-Glo 2.0, 4 days) came out at 0.125 mg/L; the IC50, SK-BR-3 cell proliferation (CellTiter-Glo 2.0, 4 days) amounted to 0.431 mg/L.
